# Source: the supplement of paper PMC10567573
# B1: MLH1 (parent)
# chain: YAHQMVRTDSREQKLDAFLQPLSK
# B2: CAMK2D (parent)
# chain: LLKHPNIVRLHDSISEEGFHYLVF
# Variants of: B1
# Assay: protein stability index of a GFP-peptide fusion (GPS, HEK-293T) (PSI 1-6); higher = more stable
# Conditions: c terminus: a fixed tail appended
# 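Also: lentivirally expressed fusions sorted by FACS into six bins by GFP to DsRed ratio, PSI derived from sequencing read proportions per bin multiplied by bin number.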
row,Variant,protein stability index
1,YAHQMVRTDSREQKLDAFLQPLSC [K24C],2.29
2,YAHQMVRTDSREQKLDAFLQPLSD [K24D],3.26
3,YAHQMVRTDSREQKLDAFLQPLSE [K24E],3.28
4,YAHQMVRTDSREQKLDAFLQPLSF [K24F],1.78
5,YAHQMVRTDSREQKLDAFLQPLSG [K24G],2.48
6,YAHQMVRTDSREQKLDAFLQPLSI [K24I],1.95
7,YAHQMVRTDSREQKLDAFLQPLSL [K24L],1.85
8,YAHQMVRTDSREQKLDAFLQPLSW [K24W],2.16

# Variants of: B2
# Assay: as above
# Conditions: c terminus: a fixed tail appended
row,Variant,protein stability index
1,CLKHPNIVRLHDSISEEGFHYLVF [L1C],1.97
2,DLKHPNIVRLHDSISEEGFHYLVF [L1D],4.59
3,ELKHPNIVRLHDSISEEGFHYLVF [L1E],2.23
4,FLKHPNIVRLHDSISEEGFHYLVF [L1F],2.89
5,HLKHPNIVRLHDSISEEGFHYLVF [L1H],1.51
6,ILKHPNIVRLHDSISEEGFHYLVF [L1I],3.14
7,KLKHPNIVRLHDSISEEGFHYLVF [L1K],3.1
8,MLKHPNIVRLHDSISEEGFHYLVF [L1M],2.61
9,NLKHPNIVRLHDSISEEGFHYLVF [L1N],2.14
10,PLKHPNIVRLHDSISEEGFHYLVF [L1P],1.76
11,QLKHPNIVRLHDSISEEGFHYLVF [L1Q],1.77
12,SLKHPNIVRLHDSISEEGFHYLVF [L1S],2.13
13,TLKHPNIVRLHDSISEEGFHYLVF [L1T],1.62
14,VLKHPNIVRLHDSISEEGFHYLVF [L1V],2.25
15,YLKHPNIVRLHDSISEEGFHYLVF [L1Y],1.96
16,LAKHPNIVRLHDSISEEGFHYLVF [L2A],2.92
17,LCKHPNIVRLHDSISEEGFHYLVF [L2C],2.36
18,LDKHPNIVRLHDSISEEGFHYLVF [L2D],2.09
19,LEKHPNIVRLHDSISEEGFHYLVF [L2E],2.04
20,LGKHPNIVRLHDSISEEGFHYLVF [L2G],2.37
21,LHKHPNIVRLHDSISEEGFHYLVF [L2H],1.44
22,LIKHPNIVRLHDSISEEGFHYLVF [L2I],3.93

row,Variant,protein stability index
1,LKKHPNIVRLHDSISEEGFHYLVF [L2K],3.35
2,LMKHPNIVRLHDSISEEGFHYLVF [L2M],1.77
3,LNKHPNIVRLHDSISEEGFHYLVF [L2N],3.63
4,LPKHPNIVRLHDSISEEGFHYLVF [L2P],1.56
5,LQKHPNIVRLHDSISEEGFHYLVF [L2Q],1.76
6,LSKHPNIVRLHDSISEEGFHYLVF [L2S],1.56
7,LTKHPNIVRLHDSISEEGFHYLVF [L2T],1.94
8,LVKHPNIVRLHDSISEEGFHYLVF [L2V],2.86
9,LWKHPNIVRLHDSISEEGFHYLVF [L2W],3.25
10,LYKHPNIVRLHDSISEEGFHYLVF [L2Y],1.83
11,LLAHPNIVRLHDSISEEGFHYLVF [K3A],2.38
12,LLCHPNIVRLHDSISEEGFHYLVF [K3C],3.78
13,LLDHPNIVRLHDSISEEGFHYLVF [K3D],2.74
14,LLEHPNIVRLHDSISEEGFHYLVF [K3E],2.16
15,LLFHPNIVRLHDSISEEGFHYLVF [K3F],2.85
16,LLGHPNIVRLHDSISEEGFHYLVF [K3G],2.04
17,LLHHPNIVRLHDSISEEGFHYLVF [K3H],1.44
18,LLIHPNIVRLHDSISEEGFHYLVF [K3I],2.71
19,LLLHPNIVRLHDSISEEGFHYLVF [K3L],3.21
20,LLMHPNIVRLHDSISEEGFHYLVF [K3M],1.77
21,LLNHPNIVRLHDSISEEGFHYLVF [K3N],2.22
22,LLPHPNIVRLHDSISEEGFHYLVF [K3P],2.1

row,Variant,protein stability index
1,LLRHPNIVRLHDSISEEGFHYLVF [K3R],2.28
2,LLSHPNIVRLHDSISEEGFHYLVF [K3S],1.79
3,LLTHPNIVRLHDSISEEGFHYLVF [K3T],1.52
4,LLVHPNIVRLHDSISEEGFHYLVF [K3V],1.78
5,LLWHPNIVRLHDSISEEGFHYLVF [K3W],2.83
6,LLYHPNIVRLHDSISEEGFHYLVF [K3Y],3
7,LLKAPNIVRLHDSISEEGFHYLVF [H4A],3.37
8,LLKCPNIVRLHDSISEEGFHYLVF [H4C],1.66
9,LLKDPNIVRLHDSISEEGFHYLVF [H4D],1.77
10,LLKEPNIVRLHDSISEEGFHYLVF [H4E],2.6
11,LLKFPNIVRLHDSISEEGFHYLVF [H4F],1.88
12,LLKGPNIVRLHDSISEEGFHYLVF [H4G],2.23
13,LLKIPNIVRLHDSISEEGFHYLVF [H4I],2.28
14,LLKKPNIVRLHDSISEEGFHYLVF [H4K],3.21
15,LLKLPNIVRLHDSISEEGFHYLVF [H4L],2.79
16,LLKMPNIVRLHDSISEEGFHYLVF [H4M],3.37
17,LLKPPNIVRLHDSISEEGFHYLVF [H4P],1.67
18,LLKQPNIVRLHDSISEEGFHYLVF [H4Q],1.06
19,LLKRPNIVRLHDSISEEGFHYLVF [H4R],2.6
20,LLKSPNIVRLHDSISEEGFHYLVF [H4S],1.94
21,LLKTPNIVRLHDSISEEGFHYLVF [H4T],1.84
22,LLKVPNIVRLHDSISEEGFHYLVF [H4V],1.58

row,Variant,protein stability index
1,LLKWPNIVRLHDSISEEGFHYLVF [H4W],1.44
2,LLKYPNIVRLHDSISEEGFHYLVF [H4Y],2.32
3,LLKHANIVRLHDSISEEGFHYLVF [P5A],2.2
4,LLKHCNIVRLHDSISEEGFHYLVF [P5C],2.29
5,LLKHDNIVRLHDSISEEGFHYLVF [P5D],1.97
6,LLKHFNIVRLHDSISEEGFHYLVF [P5F],2.26
7,LLKHGNIVRLHDSISEEGFHYLVF [P5G],1.76
8,LLKHHNIVRLHDSISEEGFHYLVF [P5H],2.4
9,LLKHINIVRLHDSISEEGFHYLVF [P5I],3.47
10,LLKHKNIVRLHDSISEEGFHYLVF [P5K],2.42
11,LLKHLNIVRLHDSISEEGFHYLVF [P5L],3.34
12,LLKHMNIVRLHDSISEEGFHYLVF [P5M],1.72
13,LLKHNNIVRLHDSISEEGFHYLVF [P5N],2.58
14,LLKHQNIVRLHDSISEEGFHYLVF [P5Q],2.6
15,LLKHSNIVRLHDSISEEGFHYLVF [P5S],2.59
16,LLKHTNIVRLHDSISEEGFHYLVF [P5T],2.59
17,LLKHVNIVRLHDSISEEGFHYLVF [P5V],2.56
18,LLKHWNIVRLHDSISEEGFHYLVF [P5W],2.57
19,LLKHYNIVRLHDSISEEGFHYLVF [P5Y],1.57
20,LLKHPAIVRLHDSISEEGFHYLVF [N6A],2.22
